The record followed here is patent US20160083476A1 (CENTRE NATIONAL DE LA RECHERCHE SCIENTIFIQUE CNRS, published 2016).

For assay [1], the target named is extracellular region of human recombinant (CD16B) receptor FcγRIIIB (human) (UniProt O75015). The experiment in a line: SPR, BIACORE 3000; VHH captured on immobilised anti-c-myc mAb 9E10, CD16 injected. In general terms: In SPR one partner is held on a chip, and binding of the other changes the refractive index at the surface.
Assay [2] concerns the target T1, NCA expressed at the surface of MC38/NCA+ cells and granulocytes (UniProt P40199 35-320, limits assumed).
T1 construct: whole, on cells
T1 sequence (looked up): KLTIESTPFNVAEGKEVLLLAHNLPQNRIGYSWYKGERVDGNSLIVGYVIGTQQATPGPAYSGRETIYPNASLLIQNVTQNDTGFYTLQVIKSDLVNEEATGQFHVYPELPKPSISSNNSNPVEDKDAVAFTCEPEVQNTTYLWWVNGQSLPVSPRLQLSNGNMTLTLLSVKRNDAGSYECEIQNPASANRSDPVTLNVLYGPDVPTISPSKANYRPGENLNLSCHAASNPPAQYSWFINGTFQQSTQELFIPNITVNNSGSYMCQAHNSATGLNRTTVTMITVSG
The assay is described as follows: FACS on cells, detection by 9E10 anti-c-myc then anti-mouse IgG-FITC. How it is done:
At each step, the samples are incubated for 45 min, 4° C., in the dark. Between each reaction, a washing is carried out with 2 ml of PBS/1% BSA. At the last step, the cells are taken up with 0.5 ml of PBS.

The target in assay [3] is T2, extracellular region of the human recombinant carcinoembryonary antigen (CEA) (human, UniProt P06731 35-676, limits assumed).
T2 construct: extracellular domain; The Biacore paragraph says only 'CEA'; also called rhCEA
T2 sequence (looked up): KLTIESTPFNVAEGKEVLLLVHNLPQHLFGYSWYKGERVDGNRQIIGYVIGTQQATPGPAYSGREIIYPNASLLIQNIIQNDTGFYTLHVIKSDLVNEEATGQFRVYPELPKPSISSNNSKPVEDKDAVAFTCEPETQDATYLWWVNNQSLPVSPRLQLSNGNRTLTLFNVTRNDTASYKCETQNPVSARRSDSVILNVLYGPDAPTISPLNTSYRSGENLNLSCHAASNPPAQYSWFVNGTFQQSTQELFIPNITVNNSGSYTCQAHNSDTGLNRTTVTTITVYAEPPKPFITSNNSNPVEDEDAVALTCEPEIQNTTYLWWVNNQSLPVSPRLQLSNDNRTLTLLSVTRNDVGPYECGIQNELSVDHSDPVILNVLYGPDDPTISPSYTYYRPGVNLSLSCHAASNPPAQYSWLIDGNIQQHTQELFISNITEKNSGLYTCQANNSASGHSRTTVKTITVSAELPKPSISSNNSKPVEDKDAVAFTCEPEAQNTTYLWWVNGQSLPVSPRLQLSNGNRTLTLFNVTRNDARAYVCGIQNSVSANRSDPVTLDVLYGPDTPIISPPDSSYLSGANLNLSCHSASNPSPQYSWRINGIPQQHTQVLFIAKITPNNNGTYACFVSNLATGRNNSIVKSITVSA
The assay is described as follows: SPR, BIACORE 3000; VHH captured on immobilised anti-c-myc mAb 9E10, CEA injected. How it is done: The VHH (in buffer: 10 mM HEPES; 150 mM NaCl; 3 mM EDTA; 0.005% surfactant P20) is then injected and then a range of CEA or CD16 is injected on the VHH immobilised on the 9E10.

Assay [4] deals with T1, NCA expressed at the surface of …. The experiment in a line: FACS on MC38/NCA+ cells and granulocytes.

Chain of extracellular region of human recombinant (CD16B) receptor FcγRIIIB (human) (O75015 17-200 limits assumed): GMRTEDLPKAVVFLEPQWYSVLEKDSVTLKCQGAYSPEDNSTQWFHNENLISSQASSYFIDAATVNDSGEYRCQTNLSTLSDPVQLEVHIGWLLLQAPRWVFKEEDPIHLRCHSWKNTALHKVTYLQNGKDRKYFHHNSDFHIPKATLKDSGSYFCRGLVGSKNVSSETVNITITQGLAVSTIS

B1: Anti-CD16 c72 VHH (VHH)
VHH: EVQLVESGGGLVQPGGSLTLSCVAAGSIFTFAMSWYRQAPRKERELVARIGTDDETMYKDSVKGRFTISRDNVKRTAGLQMNNLKPEDTAVYYCNARTDYRDWTVREYWGQGTQVTVSS
A word on the Kd: it is the constant that tells how readily two partners part at equilibrium. Usually koff stands for the rate constant with which the complex falls apart. By kon is commonly meant the rate constant with which the complex forms. As for B1, in assay [1], the Ka came out at 1.06e+07 M⁻¹, the Kd came to 0.0946 µM, the off-rate constant (koff) was determined as 0.0037 s⁻¹ and the kon was found to be 39000 M⁻¹ s⁻¹.

B2: Anti-CEA 17 VHH (VHH)
VHH: EVQLVESGGGFVQAGESLTLSCTSSTLTFTPYRMAWYRQAPGKQRDLVADISSGDGRTTNYADFAKGRFTISRDNIKNTVFLRMTNLKPEDTAVYYCNTFVSFVGIARSWGQGTQVTVSS
notes: also called VHH CEA 17; anti-CEA VHH clone 17
With B2, in assay [2], the binding result is “no binding”.

B3: Anti-CEA 25 VHH (VHH)
VHH: EVQLVESGGGLVQAGDSLTLTCTSPTLTFTPYRMGWYRQAPGKQRDLVADISGGDGRTTNYADFAKGRFTISRDNVKNAVYLQMNNLKPEDTAIYYCNTYVAIVGHARSWGQGTQVTVSS
notes: Purified from E. coli periplasm; c-myc tag recognised by mAb 9E10; also called anti-CEA VHH clone 25
For the molecule B3, in assay [3], the Ka worked out at 3.15e+07 M⁻¹, the Kd stood at 0.0317 µM, the koff was determined as 0.0036 s⁻¹ and the kon came to 113000 M⁻¹ s⁻¹. In addition, the binding result in assay [4] is given as “no binding (tested: 1 to 5 µg/ml)”.

B4: Anti-CD16 c21 VHH (VHH)
VHH: EVQLVESGGELVQAGGSLRLSCAASGLTFSSYNMGWFRRAPGKEREFVASITWSGRDTFYADSVKGRFTISRDNAKNTVYLQMSSLKPEDTAVYYCAANPWPVAAPRSGTYWGQGTQVTVSS
B4: in assay [1], the Ka was found to be 1.03e+08 M⁻¹, the dissociation constant (Kd) stood at 0.0097 µM, the koff came to 0.00279 s⁻¹ and the kon is 286000 M⁻¹ s⁻¹.

B5: Anti-CD16 c13 VHH (VHH)
VHH: EVQLVESGGGLVQPGGSLRLSCSFPGSIFSLTMGWYRQAPGKERELVTSATPGGDTNYADFVKGRFTISRDNARSIIYLQMNSLKPEDTAVYYCYARTRNWGTVWGQGTQVTVSS
For B5, in assay [1], the Ka was 9.4e+06 M⁻¹, the Kd came out at 0.101 µM, the koff came to 0.00567 s⁻¹ and the kon came to 53000 M⁻¹ s⁻¹.

B6: Anti-CEA 3 VHH (VHH)
VHH: EVQLVESGGGLVQAGGSLRLSCTSSTVTFTPYQMGWYRQAPGKQRALVADISTGGSRTNYADFAKGRFTISRDDVKNTVYLQMNNLKPEDTAVYYCNTYYAMIGHARNWGQGTQVTVSS
notes: Purified from E. coli periplasm; c-myc tag recognised by mAb 9E10; also called anti-CEA VHH clone 3
As for B6, in assay [3], the Ka was 7.38e+07 M⁻¹, the Kd amounted to 0.0136 µM, the off-rate constant (koff) came out at 0.00168 s⁻¹ and the kon was 124000 M⁻¹ s⁻¹.

B7: Anti-CEA 43 VHH (VHH)
VHH: EVQLVESGGGLVQAGGSLTLSCTSSTLTFTPYRMGWYRQTPGKQRDLVADISPGDGSTKNYAGFAQGRFTISRDNIKNTVYLQMNDLKPEDTAVYYCNTYVAFVGRARTWGQGTQVTVTS
notes: Purified from E. coli periplasm; c-myc tag recognised by mAb 9E10; also called anti-CEA VHH clone 43
On to B7, for which, in assay [3], the Ka turned out to be 9.72e+07 M⁻¹, the Kd stood at 0.0103 µM, the koff came out at 0.00183 s⁻¹ and the kon worked out at 178000 M⁻¹ s⁻¹. Also, in assay [4], the binding result is “no binding (tested: 1 to 5 µg/ml)”.
